Assay results as given in patent US20110033518A1.
Values joined by “and” are separate entries in the source; they are usually repeats but may differ in a detail not shown here. Identical values can stand only once.

Legend:
[1] = target: human ABCA1 transporter on stably transfected HeLa cells (human) (UniProt O95477); assay: cell-based or functional assay
[2] = target: human ABCA1 transporter on stably transfected HeLa cells (human) (UniProt O95477); assay: direct binding of 125I-L-37pA at 1 µg/ml to ABCA1-transfected HeLa cells, 1 hour, 4 C; design: unit not given here
[3] = target: human ABCA1 transporter on stably transfected HeLa cells (human) (UniProt O95477); assay: two-step sequential competitive binding on ABCA1-transfected HeLa cells, competitor at 8 µM, tracer 125I-L-37pA

Sequence of UniProt O95477 (O95477 whole entry): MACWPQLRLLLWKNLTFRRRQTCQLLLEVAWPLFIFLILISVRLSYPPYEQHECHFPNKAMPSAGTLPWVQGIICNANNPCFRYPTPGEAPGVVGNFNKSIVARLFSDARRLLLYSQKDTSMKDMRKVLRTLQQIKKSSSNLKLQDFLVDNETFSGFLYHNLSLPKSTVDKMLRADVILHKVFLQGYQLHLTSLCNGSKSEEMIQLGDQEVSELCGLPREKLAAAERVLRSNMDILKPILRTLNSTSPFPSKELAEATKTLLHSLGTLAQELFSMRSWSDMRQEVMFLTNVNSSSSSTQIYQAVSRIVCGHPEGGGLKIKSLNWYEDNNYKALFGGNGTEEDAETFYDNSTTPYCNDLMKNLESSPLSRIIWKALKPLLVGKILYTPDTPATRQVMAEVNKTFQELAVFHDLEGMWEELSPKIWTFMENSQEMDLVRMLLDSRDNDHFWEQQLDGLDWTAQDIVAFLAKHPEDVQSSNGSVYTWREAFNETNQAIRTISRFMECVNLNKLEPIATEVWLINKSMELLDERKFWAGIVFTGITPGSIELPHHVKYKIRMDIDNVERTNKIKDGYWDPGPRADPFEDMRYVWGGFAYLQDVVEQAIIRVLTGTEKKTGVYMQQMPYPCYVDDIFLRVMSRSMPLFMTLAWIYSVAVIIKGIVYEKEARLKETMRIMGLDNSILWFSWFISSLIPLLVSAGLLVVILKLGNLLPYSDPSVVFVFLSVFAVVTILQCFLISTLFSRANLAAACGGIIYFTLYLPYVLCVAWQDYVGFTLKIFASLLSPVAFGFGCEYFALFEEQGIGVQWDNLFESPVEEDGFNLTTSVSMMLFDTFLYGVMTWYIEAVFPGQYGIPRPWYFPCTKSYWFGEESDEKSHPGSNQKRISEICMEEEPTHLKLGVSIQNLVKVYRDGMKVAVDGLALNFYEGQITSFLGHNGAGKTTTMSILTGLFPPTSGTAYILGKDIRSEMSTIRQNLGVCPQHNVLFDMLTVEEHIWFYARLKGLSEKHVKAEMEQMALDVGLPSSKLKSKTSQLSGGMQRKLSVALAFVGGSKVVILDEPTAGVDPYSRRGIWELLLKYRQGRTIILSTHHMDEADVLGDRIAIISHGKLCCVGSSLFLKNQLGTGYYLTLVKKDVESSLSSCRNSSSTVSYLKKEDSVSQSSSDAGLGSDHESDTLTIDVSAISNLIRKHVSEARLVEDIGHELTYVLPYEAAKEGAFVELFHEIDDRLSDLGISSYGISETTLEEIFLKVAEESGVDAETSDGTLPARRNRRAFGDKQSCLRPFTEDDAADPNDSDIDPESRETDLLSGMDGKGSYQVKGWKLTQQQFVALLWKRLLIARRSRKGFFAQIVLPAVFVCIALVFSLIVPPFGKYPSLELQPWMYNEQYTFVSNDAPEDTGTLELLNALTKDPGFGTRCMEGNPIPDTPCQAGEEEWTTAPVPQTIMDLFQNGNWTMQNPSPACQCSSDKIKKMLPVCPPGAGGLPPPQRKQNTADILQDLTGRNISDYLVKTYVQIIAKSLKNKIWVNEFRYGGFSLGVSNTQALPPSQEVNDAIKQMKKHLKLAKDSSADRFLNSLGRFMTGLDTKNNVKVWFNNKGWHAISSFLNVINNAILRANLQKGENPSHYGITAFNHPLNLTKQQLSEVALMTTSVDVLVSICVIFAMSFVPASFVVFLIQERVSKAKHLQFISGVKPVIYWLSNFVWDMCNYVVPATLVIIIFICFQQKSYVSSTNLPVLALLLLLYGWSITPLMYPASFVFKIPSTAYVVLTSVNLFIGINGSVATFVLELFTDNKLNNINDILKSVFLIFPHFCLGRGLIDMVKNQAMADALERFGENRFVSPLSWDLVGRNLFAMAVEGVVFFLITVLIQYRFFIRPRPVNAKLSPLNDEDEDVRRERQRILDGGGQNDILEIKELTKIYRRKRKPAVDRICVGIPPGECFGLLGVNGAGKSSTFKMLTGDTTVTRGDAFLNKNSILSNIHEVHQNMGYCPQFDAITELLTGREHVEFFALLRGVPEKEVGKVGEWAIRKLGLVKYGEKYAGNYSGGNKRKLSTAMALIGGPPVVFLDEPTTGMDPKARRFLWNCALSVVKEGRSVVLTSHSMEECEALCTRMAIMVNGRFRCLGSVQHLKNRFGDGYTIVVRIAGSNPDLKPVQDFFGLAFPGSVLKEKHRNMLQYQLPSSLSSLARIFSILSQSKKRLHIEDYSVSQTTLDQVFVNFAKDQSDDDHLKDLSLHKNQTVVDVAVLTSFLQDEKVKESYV

Binder: DWLKAFYDKVAEKLKEAFPDWLKAFYDKVAEKLKEAF [L-37pA peptide]
- cholesterol and phospholipid efflux, ABCA1 cells against control cells, 18 hours [1]: 2 fold and 4 fold
- concentration at which lipid efflux began to show saturation [1]: 2 µM
- cell-bound radiolabeled peptide in the absence of a competitor [2]: 35
- percent of labeled L-37pA binding blocked [3]: 40%
